According to the supplement of paper PMC12636428:

Tested on: Saccharomyces cerevisiae
Test: transcriptional activation domain activity (GFP:mCherry ratio, weighted mean of sorted bins, harmonized to initial dataset scale) (arbitrary fluorescence ratio units); higher = stronger transcriptional activation
Details: beta-estradiol 1 µM; induction time 4 h
In short: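 Protein tiles carrying barcodes and fused to an estradiol-inducible synthetic transcription factor were placed at the URA3 locus of yeast diploids with a GFP reporter. Following 4 hours at 30 °C in SC with 1 uM beta-estradiol, cells were sorted into 8 GFP:mCherry bins, barcodes were sequenced, and tiles with fewer than 50 reads were discarded. Activation activity is given as the read-weighted mean of bin median fluorescence, averaged across barcodes and linearly mapped to the initial dataset scale.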

Sequence	transcriptional activation domain activity
MLMVLFSIFSTMPSPVYIIILFPSFLTFFFRYILSTVLGLWTFAFHLIPNSCW	65200
MLNLHQSCLLLCSLLIITGLGLASTIFIPVNPFYQLLLMENSAFPWIHFVIYC	38500
MLNLSYPFVLFILVPLILIPTCFCPFFVGPSYMSFCLSWLLPLFSFLPLLMLM	50300
MLNLVILAFVIVFSTFLIGCVDYAAIPTHHALSEVMLPHCYARLSPSTVLFLL	39700
MLNNSSSFFVVVPIIYTLIHYLSMLFLFGCLIHLFPYIPTCILQLLLFLLYLY	44500
MLPDEVSPWFQEVFIPTLLAYCGTFQHPWDLPQPFEDIIAELWPFVFPLSLPY	68000
MLPHCIVIIGILFSLLSDVYLYLESSLIHKVHLSSIPGTLLWHPAFFLCILCK	55800
MLPLVLLLLLLLLLLLLLLLLLLLLLLLLLIMMMIMMMMFLLFLLLLRARVRQ	13600
MLPQFQEGNCEDLWNVLVWCTIPIPFDDCEAYPCDYQQNPYPNHINFWFYLFW	55600
MLPQLIWGCFIFGLASILLCVTFIPNPSHGYIRMRQSYNSFKLYIFGPSFTYL	74800
MLPRLFFVAFATIPSPSSPLPPLPFLSSLAFFFSFFPHLISFLFVFFSFHTFF	51400
MLPRQRHSFWSVVTYLIMYYIIMYAFLYGIKYTHWIYFLSNHLVMWLLLLHFL	41100
MLPSPGETKNHAKSQSEIIQMLTDEFWANYNSGWEELINQSEFSTLFDDYKDN	116000
MLPTLRMLLGLICIAFLNRHCYGYSSRQMPMFAEAACFRIAHVLSPASAVYYP	59700
MLQHSWCFIFRLFDPLFFFFFFFFSTWNAIVGRWVFSLSFEPFFVRLLHLILY	37700
MLQIRSFVIAAFALPLCLLFCFFTLPFFALCPFLLYFPSFSILLLRLMLHLLV	49200
MLQLWRLCVDNLLMAFSNYFPLVLPHATRFYLFYFWLILRGLQLTRLFCVCFM	85300
MLQLWWLCVVFCVICFLCEWFRLGVVPPFLAATTLLQLFYFFYLLTFFCRVCA	50700
MLQQRGILRVFRIGLFILFVILLFSFLVFVTFFISLAFPHLLLVLCIFFHFFN	44200
MLQQVPRVCIISIFWNISALWAAKRFEPMVSAYSLLSNVPYVLRLVCSWQPTE	32200
MLQRFWYLALLAKRRTDLFSFKLSCLELLCFLPISMVVCHIWVIMGPLFFILF	50800

Sequence	transcriptional activation domain activity
MLQVALYMRSSSLIISIWPRLSCSRFLLVLQLIVFSFHCQLVYSIYLMLLAFS	58300
MLQVVVQCFGISLLYFRSGVYLCIFTVHGLGYLFCVFCVFGFHSVWVGLCFFV	56600
MLRCLLSFLLYIYQFKYCNAQVSINVPIDGRQFKFIESFQFLNLPFNVITSTV	67900
MLRCVFFLYCFLLVTFFSSRRVLVCAGAYLSSSYPLMPDCQYWVYFAFLRCFS	52400
MLRDYWLILIVNCQTIGCKLPIVMWSPLCLFLTLNHGLLWLWMCLALRFFSLF	35000
MLRFYVLISFFFFLCNHLLFLICFIYIREFLSHLSGALVLCFGCMVWFLNFPS	62000
MLRITLRVSIFLGYFPLFGWCAGFCFFRPFFFFFFACFRARWAFFFPSIRFFY	37300
MLRLLAMLAKYVAFLLVLLNIRSFPLVWHFRLFRAFIQLGLSLQWHKLTHFYL	60600
MLRLLFWYLLIFVCLFCSSSPSYLSIFCLFFLCLIFIPSSSYILLPFLFLTLY	37500
MLRLYHLMWDSGDYIYTIIGGWLPLPRDLMYVPFPGFYLKYMIFPTPLTLSVL	43600
MLRPYFFSPHFLLFVLVSAFNPGYYPPSLQFLSIICLYIFICPPPFFFISFPP	50800
MLRTWVLLLLVGLLGVFVRADDEPASEEPKSGGLSLSRLSQLVTSGVTGARPP	39300
MLRVIVLLIVIDHLLYLPWLYFATYNARLLSCQSSTGRIYIERNCHSHSYGDK	50700
MLRVPGSWFGMLFMGLLVSRERLSLLASLLFFVQVIFIRLLVVFWMICGGQIP	31400
MLRYFPTYRDEVVNAANYLNVVLSMDAFYYYQFCLNWTSTQLYDTWFNACFRI	59100
MLSFVIVRLLTSHLQLVWRAALLLCKPLCICPLQFLYDRESHYNLLCNEAVVF	68500
MLSGLRHLRDEHIFAAAVGFFSHIYYYRYGEHHMQAPLLFWMHISVFLMLFYW	40100
MLSHLVVSTPHCSIMFGPSMDWTRVFAFFLLLRFSLHWISNNCFVSPLLLLCY	69800
MLSIYNLQTRGIHPPNVVVGMAIFCGGLAHIFLLLFRSWNVGIICSMSCHILL	66200
MLSLFSETGCTFLLVGLSIVVGVEKGSFLFYFVYLFTLYLYCGPILLGKLIFM	49800
MLSLIFLFMIPYIHDNIFISYSPITKFMHLFIPFIIITNIFLFYTYFSILLSL	37600

Sequence	transcriptional activation domain activity
MLSLIWCFKAWLLTIISLPSYIILRTPLPFLFSSSPLFRSSPFHFFFTSLSTH	48100
MLSLKSFLPLQASLLFAAVGPISLFSLSDDVVRHIFCLKLQIFYLRFLLKWEH	43700
MLSLRQCYLVLCTLLIITGVGLASTIFIPVNPFYQLLLMENVAFPWIHFILFC	49900
MLSQSGLPKVLGLASAFVYSWTPMILLACYTVGSLCFYLIIPSLLGEILWYIY	60100
MLSRCFKCPYGAWGVIIFFIFFFYFFLNIPFFFVYYYLLFFVCSFFSFFFHFI	38600
MLSSKLNGRSQFICHLCHTGSLLTSVTLIFPFHHTYLHFLGWNLTLLTTVWFF	60600
MLSSWSTSLNLVFFSLTWTTIAMTYSPLQLEFFAPLLLRTFLYLLPSALFLLF	67600
MLSVRVVVLFAGHLCFLSSSYVLIRCFGDGFNSFVSFRFSSVWWWYLHTLCTH	87900
MLSVSLSFPFLLFFFSVSIFLLLLLLFSVSFILLLSLFFCSSFSFFNSFMVFF	43100
MLSYGSFFFLIFFVFFVISLGFLLSCSWMLYSHIWCCDGPRIFFLFVNLLFVS	38300
MLTEFCFNMLGRHDGKGLISNAVLNAWLKQLSDYFRARFTIWCRINILMDLYR	42100
MLTEVLEYCYVHGKKAYVLFNILQHVLDCHDYISFTHQLVLVMKYAKYQYVIA	55100
MLTHLHFVEQPLTPPFFSVSITSFLLRSFAFPPCVLPSVAFFLCLFCFLPLLV	56500
MLTILAQNQWFYIIVYIILSYLVIFIIGLFPSVLFFRLRHLHYSFSFYLEYLA	32700
MLTIYFPLLLFLCFHFFNRVKVWWVWVWGRVKLGWVYWFLYLCIWKGGWIRNR	48300
MLTLLLLTLIIFLSSTLVLLFFFLIPLFLICLLTFLLIFFSSPRAFFSFPHPT	47800
MLTLLSVTHGLLHKSLVHLGSIFDLCLLWAQGKYTNPILSCLLSLYLLSWLLY	62700
MLTWFFSYRLELLPFFYIIFSPIVFLLFSIFLLVLLRSFVCRLICFCLFLQSV	56500
MLVALCTYMIFNYYFFNFLLLFIFLYFTSYIVLSSSYSLVFISLIINSDFLFL	57500
MLVICLLDLLLSIMRCKRNLIQFILVCTKDGFCVGLMTKSYKRSLLVKRLFCT	39300
MLVLILTLYYFSNYLKSTHQLLSMNLLSSDDLCGILVRDNIIFSILFTFPKIL	63200

Sequence	transcriptional activation domain activity
MLVLLLLLLLLLLLLFLLLPLLLLLPLLLCLYMPCIVRCSNHEVHILLISGTG	72900
MLVRCPHLILNHKMPVLYLLFYLHIFHSLLLPFCIYASFFSFILFYQIGIFLL	48400
MLVRISLFLTLPFTLNLLPTMDLCCIGNVKILNYLSKCIHGSLCNHSIILIRL	56300
MLVRLFFCCYCCCLPVCLSVCLLHVVRCVMLLLTLMLFALLLRTCATLFFLFF	61400
MLVRLQNRLLLLGIFSHCVYGWHLEVDYVSLSDAIQTVVVQCRNLTFHITGLG	53100
MLVSVANLHYFFFPLSFGVCVLRYSSLAMCFFCIYCCLVTMLCILLLLLWSTI	39800
MLVVELLPAIESFFGHIFCTDFMFCFLFFYIIYIFFFSRFSVIANYTVMSLYF	85300
MLWGDTQILVVLLHYILPTYQFPRFYFYYMYLPLRSWLLVDNPFLFSYSALIQ	63200
MLWGNVGTSIKIWYGVFFCYCSIVLFRSSLYIINFFLLCFFFFFVFFLWFFYH	44400
MLWLVSWWLCLVVSNTLLFYLGEGGLVCFILCNSSFQVYLFLDLFIFLLFIHS	39800
MLWVCTSRKGESRVVCLGLAHLSIWIRGLLVLERILVCSMSLSCWRVGILKCT	53800
MLYFFFFYVYNVNIKQYLSIIMILFINGFSFYIYFLFHFLYIFFFFFLTITLS	88500
MLYIIMKINLFMKVIMLFLVKLIVHYLMILLSLVLLLILLSSFIYICYILVLF	37800
MLYINHFLHSPRGLVEQAKSLFFLYLSFFFLFFFFPFISFHFSFNVPFSLNCI	50900
MLYLCFLISFYSLCFLFSYFFNFVLDILFFYYFIIFLFSYFSIFLFSYFLICL	54300
MLYLYPLYLGYYLFLFLSISRLEKFLHIGSLITCLPRLVSLEIRLTLCLYYHL	80100
MLYQLFYFSRTKLIILVFFVLFSLLIISLFFFLFIPPFTFFFPFHMPEVFQNI	38200
MLYRVYLDIFFFLYCLFVLGAFQDTRRFLFKFWAFPLLKVWQVVTIHLTCTQY	61800
MLYSFRLLFILFFFLLEALSICRRCNVTGRGCFRDWDCWNACHQYAVSPRWGI	41900
MLYSFSFTTIGYILAFNPPDGRFFYLMLLGLFVQHLIVYVILFVLILLPICVY	34300
